How the values were obtained:
[1] = target: S453P C-terminal peptide (CTP), His6-tagged, released from the chain by trypsin cleavage of S453P proaerolysin (Aeromonas hydrophila); assay: pull-down; proaerolysin processed with trypsin agarose beads at pH 8, incubated with His-bind resin preloaded with nickel (held by the His6 tag of the CTP), 4°C, 30 min, extensively washed; SDS-PAGE and Coomassie staining
[2] = target: S453P C-terminal peptide (CTP), His6-tagged, released from the chain by trypsin cleavage of S453P proaerolysin (Aeromonas hydrophila); assay: SPR; His-tagged proaerolysin bound to nickel charged NTA sensor chip via the His tag at the C-terminus of the CTP; trypsin added and release of the mature toxin followed; apparent Koff, by the authors only comparative

“aerolysin (mature toxin obtained by trypsin cleavage of proaerolysin) (from UniProt P09167 24-445) (natural protein)” was tested, and the percent of the total aerolysin in the unbound fraction (released from the bead-bound CTP) [1] was 40% and the koff [2] was 0.026 s⁻¹.
